Test results reported in PMC7515180.

Target: SERINC3(iHA), Serine incorporator 3 with an internal HA tag (UniProt Q13530)

Row | Substance | SERINC3 internalization from the cell surface, relative to wild type NL4.3 Nef (flow cytometry, co-transfected CEM T cells) [%]
1 | HIV-1 NL4.3 Nef I11G (from UniProt P03406 1-206) (natural protein) | 0
2 | HIV-1 NL4.3 Nef S8R (from UniProt P03406 1-206) (natural protein) | 50
